Measurements: US20240002530A1 (LXZ SERVICES, published 2024)

Target: T1, human prostate-specific membrane antigen (PSMA), on prostate cancer LNCaP and PC-3 cells (human, UniProt Q04609 1-750)
T1 construct: also called glutamate carboxypeptidase II; GCPII
Test: flow cytometry on LNCaP cells

T1 sequence (Q04609 whole entry): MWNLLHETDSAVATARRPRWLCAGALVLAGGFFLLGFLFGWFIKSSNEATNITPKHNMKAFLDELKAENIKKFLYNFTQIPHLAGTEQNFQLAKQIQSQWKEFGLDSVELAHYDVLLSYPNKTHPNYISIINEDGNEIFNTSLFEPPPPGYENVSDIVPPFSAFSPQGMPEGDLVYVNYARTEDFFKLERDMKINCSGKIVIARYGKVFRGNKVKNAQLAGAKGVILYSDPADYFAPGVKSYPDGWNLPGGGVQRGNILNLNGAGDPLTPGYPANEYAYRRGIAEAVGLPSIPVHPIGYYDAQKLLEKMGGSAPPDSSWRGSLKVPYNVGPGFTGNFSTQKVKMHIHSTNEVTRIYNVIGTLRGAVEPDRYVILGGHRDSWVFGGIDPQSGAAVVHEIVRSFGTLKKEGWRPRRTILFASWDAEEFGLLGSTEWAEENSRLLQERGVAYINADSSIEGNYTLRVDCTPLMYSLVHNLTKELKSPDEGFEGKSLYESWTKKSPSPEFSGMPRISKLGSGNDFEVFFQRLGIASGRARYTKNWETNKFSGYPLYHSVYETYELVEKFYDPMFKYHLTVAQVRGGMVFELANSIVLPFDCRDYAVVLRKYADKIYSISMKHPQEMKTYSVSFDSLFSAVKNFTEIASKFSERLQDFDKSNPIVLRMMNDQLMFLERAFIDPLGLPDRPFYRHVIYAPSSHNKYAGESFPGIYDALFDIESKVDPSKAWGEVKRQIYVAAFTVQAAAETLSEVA

| binding result | Binder |
| --- | --- |
| binds | Antibody No. 12 (antibody, V domains shown, Mouse hybridoma monoclonal IgG from ascites; also called PSMA-McAb clone 12) VH: VQLQESGPGLVKPSQSLSLTCTVTGYSITSDYAWNWIRQFPGNKLEWMGYISYSGSTSYNPSLKSRISITRDTSKNQFFLHLNSVTTEDTATYYCARQTYYYGSSPFTYWGQGTTVTVSS VL: DIVMTQTPSSLTVTAGEKVTMRCKSSQSLLNSGNQKSYLTWYQQKPGQPPKLLIYWASTRESGVPDRFTGSGSGTDFTLTISSVQAEDLAVYYCQNDYSYPLTFGAGTKLELK |
| binds | Antibody No. 18 (antibody, V domains shown, Mouse hybridoma monoclonal IgG from ascites; also called PSMA-McAb clone 18) VH: VQLEESGDDLVKPGASVKLSCKASGHTFTSYWINWIKQRPGQGLEWIGRIAPGSGSTYYNEMFKGKATLTVDTSSSTAYIQLSSLSSEDSAVYFCARNLKYGNYGFAYWGQGTTVTVSS VL: DIVMTQTPSSLTVTAGEKVTMSCKSSQSLLNSGNQKNYLTWYQQKPGQPPKLLIYWASTRESGVPDRFTGSGSGTDFTLTISSVQAEDLAVYYCQNDYSYPLTFGAGTKLEIK |
| binds | Antibody No. 14 (antibody, V domains shown, Mouse hybridoma monoclonal IgG from ascites; also called PSMA-McAb clone 14) VH: VQLQESGPGLVQPSQSLSITCTVSGFSLTSYGVHWVRQSPGKGLEWLGVIWRGGSTDYNAAFMSRLSITKDNSKSQVFFKMNSLQADDTAIYYCAKKKYGNYGAMDYWGQGTTVTVSS VL: DIVMTQSPKFLLVSAGDRVTITCKASQSVSNDVAWYQQKPGQSPKLLIYYASNRYTGVPDRFTGSGYGTDFTFTISTVQAEDLAVYFCQQDYSSPYTFGGGTKLELK |
